# Assay results reported in publication PMC2645378 (Virology Journal, 2008).
# Several values for one entry are separate records, joined by “and”; a condition that tells them apart may be missing. Equal entries are not always repeated.
# B1: FLAG-tagged soluble Lassa virus glycoprotein 1 (sGP1-FLAG) (natural protein)
# chain: TSLYKGVYELQTLELNMETLNMTMPLSCTKNNSHHYIMVGNETGLELTLTNTSIINHKFCNLSDAHKKNLYDHALMSIISTFHLSIPNFNQYEAMSCDFNGGKISVQYNLSHSYAGDAANHCGTVANGVLQTFMRMAWGGSYIALDSGRGNWDCIMTSYQYLIIQNTTWEDHCQFSRPSPIGYLGLLSQRTRDIYISRRLL
# Biological target: the molecule itself
protein,measurement,value
B1,stoichiometry N,2 and 3
